Results taken from patent publication US20240034813A1 (Janssen / Centocor, published 2024).

Experiments:
[1] = biological target: T1, recombinant cMet/HGFR with c-terminal His-tag, Cy5-labeled (UniProt P08581 25-932, limits assumed, Cy5 label (reacted with Cy5 Mono NHS Ester; sites not stated)); assay: competitive TR-FRET (Eu-amivantamab/Cy5-c-MET), EC50 ratio vs Reference Material; Ex. 12 drug product with rHuPH20, 9 months at 5 C
T1 construct: Commercial protein; also called Cy5-c-MET; Cy5-labeled c-MET antigen; not shown: C-terminal His-tag
Text: (§1) In this procedure, varying concentrations of unlabeled bispecific EGFR-cMet antibody sample compete with donor fluorophore (Europium (Eu) chelate) labeled bispecific EGFR-cMet antibody for binding to an acceptor fluorophore (Cy5)-labeled c-MET antigen. Excitation of the donor fluorophore results in a transfer of energy to the bound acceptor fluorophore (FRET process). The resultant FRET is detected by emission of light at 665 nm using a microplate reader capable of measuring time-resolved fluorescence. Sample dose response curves are compared to the Reference Material (RM).
(§2) c-MET Binding Materials and Methods. Certified commercial cMet, a recombinant cMet/HGFR with c-terminal His-tag is reacted with certified commercial Cy5 Mono NHS Ester to produce Cy5-labeled c-MET. Validated bispecific EGFR-cMet antibody is reacted with certified commercial Europium (Eu) chelate to produce Eu labeled bispecific EGFR-cMet antibody. […] Fluorescence is then measured by spectrophotometry at 665 nm, plotted against antibody concentration and analyzed by a four-parameter logistic model. The antibody concentration required to obtain half of the maximum fluorescence response (EC50) is determined for RM, assay control and samples. The potencies of assay control and samples are calculated based on the ratio of the sample (or control) and RM EC50 values and reported as a percentage activity relative to the RM.

[2] = biological target: T2, recombinant human EGFR/ErbB1/HER1 with C-terminal His tag, Cy5-labeled (human, UniProt P00533 25-645, Cy5 label (reacted with Cy5 Mono NHS Ester; sites not stated)); assay: competitive TR-FRET (Eu-amivantamab/Cy5-EGFR), EC50 ratio vs Reference Material; Ex. 2 Formulation 3 (acetate), T0, 5 C table
T2 construct: Commercial protein; also called Cy5-EGFR; Cy5-labeled EGFR antigen; not shown: C-terminal His tag
Text: (§3) In this procedure, varying concentrations of unlabeled bispecific EGFR-cMet antibody sample compete with donor fluorophore (Europium (Eu) chelate) labeled bispecific EGFR-cMet antibody for binding to an acceptor fluorophore (Cy5)-labeled EGFR antigen. Excitation of the donor fluorophore results in a transfer of energy to the bound acceptor fluorophore (FRET process). The resultant FRET is detected by emission of light at 665 nm using a microplate reader capable of measuring time-resolved fluorescence. Sample dose response curves are compared to the RM.
as §2, with “EGFR” for “c-MET”, “EGFR,” for “cMet,”, “human EGFR/ErbB1/HER1” for “cMet/HGFR”, “C-terminal His tag” for “c-terminal His-tag”, “EGFR.” for “c-MET.”, “Eu-labeled” for “Eu labeled”

[3] = biological target: T1, recombinant cMet/HGFR with c-terminal …; assay: competitive TR-FRET (Eu-amivantamab/Cy5-c-MET), EC50 ratio vs Reference Material; Ex. 11 drug product, 9 months at 5 C
Text: as §1, §2

[4] = biological target: T1, recombinant cMet/HGFR with c-terminal …; assay: competitive TR-FRET (Eu-amivantamab/Cy5-c-MET), EC50 ratio vs Reference Material; Ex. 2 Formulation 1 (10 mM histidine), 3 months at 25 C
Text: as §1, §2

[5] = biological target: T2, recombinant human EGFR/ErbB1/HER1 with …; assay: competitive TR-FRET (Eu-amivantamab/Cy5-EGFR), EC50 ratio vs Reference Material; Ex. 2 Formulation 2 (50 mM histidine), 3 months at 5 C
Text: as §3
as §2, with “EGFR” for “c-MET”, “EGFR,” for “cMet,”, “human EGFR/ErbB1/HER1” for “cMet/HGFR”, “C-terminal His tag” for “c-terminal His-tag”, “EGFR.” for “c-MET.”, “Eu-labeled” for “Eu labeled”

[6] = biological target: T2, recombinant human EGFR/ErbB1/HER1 with …; assay: competitive TR-FRET (Eu-amivantamab/Cy5-EGFR), EC50 ratio vs Reference Material; Ex. 3 acetate formulation, 6 months at 25 C then 5 freeze/thaw cycles
Text: as §3
as §2, with “EGFR” for “c-MET”, “EGFR,” for “cMet,”, “human EGFR/ErbB1/HER1” for “cMet/HGFR”, “C-terminal His tag” for “c-terminal His-tag”, “EGFR.” for “c-MET.”, “Eu-labeled” for “Eu labeled”

[7] = biological target: T1, recombinant cMet/HGFR with c-terminal …; assay: competitive TR-FRET (Eu-amivantamab/Cy5-c-MET), EC50 ratio vs Reference Material; Ex. 12 drug product with rHuPH20, 3 months at 25 C
Text: as §1, §2

B1: amivantamab (bispecific antibody, human IgG1, kappa)
heavy 1: not shown
light 1: not shown
heavy 2: not shown
light 2: DIQMTQSPSSVSASVGDRVTITCRASQGISNWLAWFQHKPGKAPKLLIYAASSLLSGVPSRFSGSGSGTDFTLTISSLQPEDFATYYCQQANSFPITFGQGTRLEIKRTVAAPSVFIFPPSDEQLKSGTASVVCLLNNFYPREAKVQWKVDNALQSGNSQESVTEQDSKDSTYSLSSTLTLSKADYEKHKVYACEVTHQGLSSPVTKSFNRGEC
notes: The samples tested were high concentration (160 mg/mL) formulations, fresh or stored or stressed; also called JNJ-61186372; bispecific EGFR-cMet antibody
[1]
  cMET Binding activity relative to Reference Material (%): 106%
[2]
  EGFR Binding % activity relative to RM: 103%
[3]
  cMET Binding activity relative to Reference Material (%): 101%
[4]
  cMET Binding % activity relative to RM: 94%
[5]
  EGFR Binding % activity relative to RM: 96%
[6]
  EGFR Binding % activity relative to RM: 95%
[7]
  cMET Binding activity relative to Reference Material (%): 81%
